Results taken from the nanobody polyreactivity screen of Harvey et al. (2022).

Experiment: yeast display, Sf9 membrane polyspecificity reagent, FACS + sequencing; frameworks hold sequencing errors
Summary of the method: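 Polyreactivity labels are assigned by the sorting gate from which each nanobody was recovered. The gates were low and high (top ~1%), set on anti-HA fluorescence for expression and streptavidin fluorescence for reagent binding. Before sorting, galactose-induced (36–48 hours) yeast display cells were stained for 1 hour at 4 °C with 10% biotinylated, detergent-solubilized Sf9 membrane reagent.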

| Sequence | polyreactivity (PSR sort gate) |
| --- | --- |
| QVQLVESGGVLVQAGGSLRLSCAASGRIFGSYTMGWYRQAPGKERELVAGISRRGGSTYYADSVKGRFTISRDNAKNTVYLQMNSLNPEDTAVYYCAAVSSVFSVRYDYWGQGTQVTVSS | high polyreactivity |
| QVQLVESGGVLVQAGGSLRLSCAASGRIFPTYAMGWYRQAPGKERELVAAISQRGGSTYYADSVKGRFTISRDNAKNTVYLQMNSLKPEDTAVYYCAASYYRQSGEYDYWGQGTQVTVSS | low polyreactivity |
| QVQLVESGGVLVQAGGSLRLSCAASGRIFWLNAMGWYRQAPGKEREFVASITYGSDSTYYADSVKGRFTISRDNAKNTVYLQMNSRTPEDTAVYYCNREGWHYGPYGYWGQGTQVTVSS | low polyreactivity |
| QVQLVESGGVLVQAGGSLRLSCAASGRLFSRYTMGWYRQAPGKERELVAAIRNTGSTNYADSVKGRFTISRDNAKNTVYLQMNSLKPEDTAVYYCNARTAYVAYHYYYPQRMDYWGQGTQVTVSS | high polyreactivity |
| QVQLVESGGVLVQAGGSLRLSCAASGRSFDENSMGWYRQAPGKERELVAAITGGDSTNYADSVKGRFTISRDNAKNTVYLQMNSLKPEDTAVYYCAKDQERVTKGRFYLLEYYWGQGTQVTVSS | low polyreactivity |
| QVQLVESGGVLVQAGGSLRLSCAASGRTSKFYAMGWYRPAPGKERELVARITYSGGSTTYADSVKGRFTISRDNAKNTVYLQMNSLKPDDTAVYYFAITSQWLRRYYYWGQGTQVTVSS | high polyreactivity |
| QVQLVESGGVLVQAGGSLRLSCAASGSAFRENDMGWYRQAPGKERELVAAITFSGGSTYADSVKGRFTISRDIAKNTVYLQMNSLKPEDSAVYYCSADTLPAEYEYDYWGQGTQVTVSS | low polyreactivity |
| QVQLVESGGVLVQAGGSLRLSCAASGSIFKLNAMGWYRQAPGKERELVAVINKSGGRTFYADSVKGRFTISRDNAKNTVYLQMNRLKPEDTAVYYCNAVSNLAVNLDYWGQGTQVTVSS | high polyreactivity |
| QVQLVESGGVLVQAGGSLRLSCAASGSIFYVNAMGWYRQAPGKERELVATITTDGSTNYADSVKGRFTISRDNAKNTVYLPMNSLKPEDTAVYYCAAERWLATPTVPWYLYNYWGQGTQVTVSS | low polyreactivity |
| QVQLVESGGVLVQAGGSLRLSCAASGSLFSRYAMGWYRQAPGKERELVAAISSSGGSTYYADSVKGRFTISRDNAKNTVYLQMISLKREDTAVYDCGAELRYYLVWLYYWGQGTQVSVSS | low polyreactivity |
| QVQLVESGGVLVQAGGSLRLSCAASGSTFFLYMGWYRQAPGKERELVAAITVSGRSTYYADSVKGRFTISRDNAKNTVYLQMNSLKPEDTAVYYCNADWVLRYDYWGQGTQVTVSS | low polyreactivity |
| QVQLVESGGVLVQAGGSLRLSCAASGSTFPWYAMGWYRPAPGKERELVAAITARGTRTYYADSVKGRFTISRDNAKNTVYLQMNILKPEDTAVYYCNAGISSRYDYWGQGTQVTVSS | high polyreactivity |
| QVQLVESGGVLVQAGGSLRLSCAASGSTFWTNTMGWYRQAPGKERELVAAISRRGGTTYYADSVKGRFTISRDNAKNTVYLQMNSLKPEDTAVYYCATSLIGKTVPLRVYYWGQGTQVTVSS | high polyreactivity |
| QVQLVESGGVLVQAGGSLRLSCAASGSTIRLYAMGWYRQAPGKERELVAAIRSGGNTNYADSVKGRFTISRDNAKNSVYLQMKSLKREDTAVYYCNGFCAQLPVPNYDYWGQGPQVTVSS | high polyreactivity |
| QVQLVESGGVLVQAGGSLRLSCAATGSIINRYAMGWYRQAPRKERELVAAISSTGSTYYADSVKGRFTISRDNAKNTVYLQLNSLKPEDTAVYYCNADATLDWLRVDSYVYWGQGTQVTVSS | low polyreactivity |
| QVQLVESGGVLVQAGGSLRLSCADSGRTFWYYAMGWYRQAPGKEREWVASISASGGSTFYADSVKGRFTISRDNAKNTVSLQMNSLKPEDTAVYYRAAKNAVWRRYEYWGQGTQVTVSS | high polyreactivity |
| QVQLVESGGVLVQAGGSLRLSCASSLTISYRYAMGWYRTAPGKERELVAAITSGGGTTYYADSVKGRFTISRDNAKNTVYLQMNSMKPEDTAVYYCAKPRARQAFEYWGQGTQVTVSS | high polyreactivity |
| QVQLVESGGVLVQALGSLRLSCAASVITIDNYVMGWYRQAPGKERELVAAISIGGGTYYADSVKGRFTISRDNAKNTVYLQMNSRKPEDSAVYYCKARSDVSYWWGGYWGQGTQVTVSS | low polyreactivity |
| QVQLVESGGVLVQARGILRLICAASGSTFSFNDMGWYRQAPGKERELVAAISRGDNTYYADSVKGRFTISRDNAKNTVYLQMNSLKPDDTSVYYCAADYTYGPPYGYNYWGQGTQVTVSS | low polyreactivity |
| QVQLVESGGVLVQAVGSLRLSCAASGSIFRLYALGWYREARGKEREFVATITWSGGSTSYADSVKGRFTISRDNAKNTVYLQMNSLKPEDTAVYYCAAKRRYWLYDWGQGTQVTVSS | high polyreactivity |
| QVQLVESGGVLVQGRGSLRLSCDASGFTYYTNDMGWYRQAPWKERELVAAINSGGSTKYADSVKGRFPISRDNAKNTVYEQMNSLKPEETAVYYCNRDDNRKHSFGSVGYDYWGQGHQVTVSS | low polyreactivity |
| QVQLVESGGWLVQAGGSLRLSCAASGFIFYRYAMGWYRPAPGKERELDAAISGSGGRTYYADSVKGRFTISRDNAKNTVYLQMNSLKPEDTAVYYCAADKQAYVTDDYWGQGTQVTVSS | high polyreactivity |

| Sequence | polyreactivity (PSR sort gate) |
| --- | --- |
| QVQLVESGGWLVQAGGSLRLSCAASGSIFTINTMGWYRQARGKERELVAAITGSGGITYYADSVKGRFTISRDNAKNTVYLQMNSLNPVDTAVYYCAAVVYGTVRRVGWYYVGEGYDYWGQGTQVTVSS | low polyreactivity |
| QVQLVESGLGLVKAGGSLRLSCAASGNTFDHYVMVWSRQAPGKEPELVASITSGGSTNYADSVKGRFTISRDNAKNTVYLQMNSLKPEDTAVYYCAVSLSYWYEAFTTRIDYYYWGQGTQVTLSS | high polyreactivity |
| QVQLVESGLGLVQAGRSLRLSCASSGRIFNYYAMVWYRQAPGKERELVAGINWSGTRTYYADSVKGRFTISRDNAKNTVYLQMNSLKPEDTAVYYCNAGRTWRAFTGDEYWGQGTQVSVSS | high polyreactivity |
| QVQLVESGRGIVQAGGSLRLSCAASGRIFRVNAMGWYRQAPGKERELVATISYSGGSTYADSVKGRFTISRDNAKNTVYLQMNSLKPEDTAVYYCAARPYYRYYRYPYGYWGQGTQVTVSS | high polyreactivity |
| QVQLVESGRGLFQAGGSLRLSCAASGRIFRYYAMGWSRQATGKERELVAAISGSGGSTYYAASVKGRFTISGDNAKNTVYLLMNSLKPEDNAVYYCNALYRIASGEGDLWGQGTQVTVSS | low polyreactivity |
| QVQLVESGRGLFQAGRSLRISCAASGSIFSYNTMGWYREAPGKERELVASISSGGRTYYADSVKGRFTISRDNAKNTVYLQMNSLKPVDTAVYDCARVPYAYLPYKPFQQYSYDYWGQGTQVTVSS | high polyreactivity |
| QVQLVESGRGLVHAGGSLLLSCAASGSTFGWYAMGRFIQARGKEREFVAAISWSGTSTYYADSVKGRFTISRDNAKNTFDLQMNSLKPEDTAVYYCASRWVVFTEREDYWGQGTQVTVSS | low polyreactivity |
| QVQLVESGRGLVPAGGSLRLSCAASGSTFFKNAMGWYRQAPGNERELVAAITWSGDRTYADSVKGRFTISRDNAKNTVYLQMNSLKPEDTAVYYCNVDITGYEDDEWGQGTQVTVSS | low polyreactivity |
| QVQLVESGRGLVQAGCSLRLSCAASGRIFPWNAMGWYRQAPGKETEFVAAITSGGGTTYYADSVKGRFTISRDTAKITVYLQMNSLKQEDTAVYYCAAPVYTVRGWRGLYGYWGQGSQVTVSS | high polyreactivity |
| QVQLVESGRGLVQAGGSLRISCAASGSIFRVNAMGWYRQAPGKERELVASISKTGTRTYYADSVKGRFTISRDNAKITVYLQMNSLKPEDTAVYYCAADKPRREYDYWGQGTQVTVSS | low polyreactivity |
| QVQLVESGRGLVQAGGSLRLSCAASARTFPIYAMGCYRQAPWKEREFVAAITYSGGSTYYADSVKGRFTISRDNAKNTVYLQMNSLKPEDTAVYYCAVDGTKPYWHQRYDYSGQGTQVTVSS | low polyreactivity |
| QVQLVESGRGLVQAGGSLRLSCAASGFIFDYNTMGWYRQAPGKERELVAGITSGGSTYYADSVKGRFTISRDNEKNTFYLQMNSLKPDDTAVYYCATDDDEYYGYDYWGQGTQVTVST | low polyreactivity |
| QVQLVESGRGLVQAGGSLRLSCAASGFIFHRYAMGWYRQAPGKERELFAAITRTGGRTYYADSVKGRFTISRDNAKNTVYLQMNSLKPEDTEVYYCAAVRTLSYEYWGQGTKVTVSS | high polyreactivity |
| QVQLVESGRGLVQAGGSLRLSCAASGFTFDGNAMGWYRQAPGIERELFARITWDDGSTYYADSVKGRFTISRDNAKNTVYLQMNSLNPEDTAVYYCAAEWCTDGYQVLPVDYDYWGQGTQVTVSS | low polyreactivity |
| QVQLVESGRGLVQAGGSLRLSCAASGFTFRTYAMGWYRQSPGKERELDAAITRNGGTYYADSVKGRFTISRDNAKITVYLPMNSLKPEDTARYYCATDPAYWGDLPPEDDYWGQGTQVTVSS | low polyreactivity |
| QVQLVESGRGLVQAGGSLRLSCAASGGTFYIYAMGWYRQAPGKERELVAVISISDASTYYADSVKGRFTFSRDNAKNTVYLQMNSLKPEDTAVYYCNAKSNPAGSYPSEHSGYDSWGQGTQVTVSS | low polyreactivity |
| QVQLVESGRGLVQAGGSLRLSCAASGIIFSSYAMGWYRQAPGKERELVAAISYSGGSTYYADSVKGLFSISRDNAKNTVYLEMNCLIPEDTAVYYCAAQGYSPGGYDYWGQGTQVTVSW | low polyreactivity |
| QVQLVESGRGLVQAGGSLRLSCAASGIIFVKYAMGWYRQAPGKERELVAAISTRGGSTYYADSVKGRFTISRDNAKNTVYLQMNSLNPEDTAVYYCADDATRKSQLPNTVPYDYWGQGTQVTVSS | high polyreactivity |
| QVQLVESGRGLVQAGGSLRLSCAASGIIFVSYMGWYRQAPGKERELVAAIRWSGGRTYYADSVKGRFTISRDNAKNTVYLQMNSLNPVDTAVYYCAADALRKPKIALYDYWGQGTQVTVSS | high polyreactivity |
| QVQLVESGRGLVQAGGSLRLSCAASGITFSYYTMGWYRQAPGKERELVAAINWNGGSTYYADSVKGRFTISRDNAKNTVYLQMNSLKPEDTAVYYCAREKWPSQYDYWGQGTQVTVSS | low polyreactivity |
| QVQLVESGRGLVQAGGSLRLSCAASGRIFHYNAMVWYRQAPRKERELVAAISGSGGSTYYADTVKGRFTISRDIAKNTVYLQMNSLKPEDTADYYCGDKRRTLGGYWGQGTQVTVSS | high polyreactivity |
